Data reported in patent publication US20030219445A1.
Several values for one entry are separate records, joined by “and”; a condition that tells them apart may be missing. Equal entries are not always repeated.

Key:
[1] = biological target: CD34 antibody 9069 (9C5) coated on M-450 Dynabeads; assay: cell-based or functional assay
[2] = biological target: biotinylated 9C5 antibody (anti-human CD34 monoclonal antibody, biotinylated with Biotin Hydrazide); assay: cell-based or functional assay

QQGWFPKD (N-terminal acetyl (printed Ac-QQGWFPKD)) [free PR34+ peptide Ac-QQGWFPKD]
% Yield, released with PR34+ 2.5 mg (beads with 1 µg antibody per 10^8 beads) [1]: 55.9%
% Yield, released with PR34+ 2.5 mg (beads with 5 µg antibody per 10^8 beads) [1]: 68.9%
% Yield, released with PR34+ 2.5 mg (beads with 20 µg antibody per 10^8 beads) [1]: 47.4%
% Yield, released with PR34+ 2.5 mg (beads with 50 µg antibody per 10^8 beads) [1]: 57.5%
release of Camma cells from anti-CD34-coated Dynabeads [1]: > 75%
yield of Camma cells after release with PR34 peptide [1]: > 70%
% SUP-T1 Yield (tube 2, cells released with free PR34+ peptide) [2]: 43%
% SUP-T1 Yield (tube 3, cells released with free PR34+ peptide) [2]: 31%
% T-cells released with 9069N 2.5 mg (CD2-9069N 1 µg, b-9069 1 µg) [2]: 71%
% T-cells released with 9069N 2.5 mg (CD2-9069N 1 µg, b-9069 10 µg) [2]: 87% and 65%
% T-cells released with 9069N 2.5 mg (CD2-9069N 5 µg, b-9069 1 µg) [2]: 61% and 56%
% T-cells released with 9069N 2.5 mg (CD2-9069N 5 µg, b-9069 10 µg) [2]: 50%
% Yield of CD8+ cells (condition 3, released with free PR34+ peptide) [2]: 16%
% Yield, released with PR34+ 2.5 mg (streptavidin coated Dynabead control) [2]: 81.5%
